{
  "source": "patent US20060134801A1",
  "about": "“Methods and compositions involving MDA-7” (Board of Regents, The University of Texas System, priority 2003, published 2006)",
  "molecules": {"B1": {"name": "sMDA-7: soluble secreted human MDA-7 (IL-24) protein purified from stably transfected 293-mda-7 cells (protein)", "chain": "AQGQEFHFGPCQVKGVVPQKLWEAFWAVKDTMQAQDNITSARLLQQEVLQNVSDAESCYLVHTLLEFYLKTVFKNYHNRTVEVRTLKSFSTLANNFVLIVSQLQPSQENEMFSIRDSAHRRFLLFRRAFKQLDVEAALTKALGEVDILLTWMQKFYKL"}},
  "key": {"[1]": {"system": "HUVEC", "experiment": "Endothelial cell differentiation (tube formation) assay on Matrigel", "format": "cell-based, human", "experimental": "Endothelial cell differentiation (tube formation) assays were done using the in vitro angiogenesis assay kit (Chemicon, Temecula, Calif.). Briefly, HUVEC and HMVEC were grown to 80% confluency, collected, resuspended in growth medium, and plated at a concentration of 2−10^4 cells/well in a 96-well plate coated with Matrigel (Chemicon, Temecula, Calif.). Cells were treated with sMDA-7 protein (1, 5, 10, and 50 ng/ml), or a preparation immunodepleted of sMDA protein for 24 h at 37° C. Cells treated with PBS served as negative controls in these experiments. The ability of sMDA-7 to inhibit tube formation was determined and quantitated by counting the number of tubes under bright-field microscopy.\nFor experiments involving comparative studies, cells were treated with equimolar concentrations of sMDA-7 (5, 10, and 300 ng/ml), recombinant human endostatin (5.2, 10.4, and 315 ng/ml; Calbiochem, La Jolla, Calif.), recombinant IFN-γ (4.5, 9, and 268 ng/ml; R&D systems, Minneapolis, Minn.) or recombinant IP-10 (2.4, 4.5, and 134 ng/ml; R&D systems, Minneapolis, Minn.) and analyzed for tube formation assay as described above. All samples were tested in duplicate. Experiments were repeated at least 5-6 times.\nFor receptor blocking studies, HUVEC grown in six-well plates were pretreated with IL-22R1 blocking antibody (1 ng/ml and 5 ng/ml). Following overnight incubation, cells were harvested, washed, and plated in Matrigel coated 96-well plates. Fresh IL-22R1 blocking antibody and sMDA-7 was added to the wells in a 1:1 ratio (1 ng/ml of IL-22R1 antibody:1 ng/ml of sMDA-7) or 1:5 ratio (1 ng/ml of IL-22R1 antibody:5 ng/ml of sMDA-7) and incubated at 37° C. After overnight incubation, the plates were examined for tube formation. All other experimental procedures were the same as described above. […] The relative amount of IL-22R1 used for experiments involving endostatin was 315 ng/ml (1:1 ratio) and 134 ng/ml for experiments involving IP-10 (1:1 ratio). All other experimental procedures were the same as described previously. For blocking studies using anti-IP-10 or anti-IFN-γ neutralizing antibodies (R & D Systems), experiments were conducted as described above for receptor studies except that HUVEC were treated with the appropriate neutralizing antibody (1 μg and 5 μg/ml) prior to treatment with sMDA-7 (300 ng/ml)."}, "[2]": {"system": "A549 and H1299", "experiment": "Effect of secreted MDA-7 protein on lung cancer cells", "format": "cell-based, human", "experimental": "The number of apoptotic cells was measured by propidium iodide staining and FACS analysis. Cells were harvested, pelleted by centrifugation and resuspended in phosphate-buffered saline containing 50 μg/ml propidium iodide, 0.1% Triton X-100, and 0.1% sodium citrate. Samples were stored at 4° C. for 1-3 hours and vortexed prior to FACS analysis (Becton-Dickenson FACScan, Mountain View, Calif.; FL-3 channel)."}, "[3]": {"system": "A549 tumor xenografts", "experiment": "A549 xenograft tumors with 293-mda-7 cells (mixing and distant implant)", "format": "in vivo, nude mice", "conditions": "3 days postimplantation of 293-mda-7 cells", "experimental": "[…] 293 cells and 293-mda-7 cells were first tested for their ability to form tumors. […] No tumors formed at this cell concentration, so subsequent experiments were performed using this cell number. For in vivo mixing experiments, human lung tumor cells (A549) grown to 90% confluency were trypsinized, washed, and resuspended in sterile phosphate-buffered saline at a concentration of 5×10^6/ml. The tumor-cell suspension was mixed with an equal number (5×10^6/ml) of parental 293 cells or with 293-mda-7 cells, gently vortexed, and injected subcutaneously in nude mice (10^6 cells/animal) as described above. Each group comprised of eight animals, and the experiments were done twice. Tumor growth was monitored and measured as described previously (Saeki et al., 2002). At the end of the experiment, animals were euthanized by CO2 inhalation, and tumors were harvested for histopathological analysis, western blot analysis, and for CD31 and TUNEL staining.\nTo evaluate the systemic effect of sMDA-7 on tumor growth, subcutaneous tumors were established by injecting A549 tumor cells (5×10^6 cells) into the lower right flank of nude mice. […] The effect of sMDA-7 on tumor growth was monitored as described above. […]\nTumor tissues were stained for CD31 and TUNEL as previously described (Saeki et al., 2002). […] Tissue sections were analyzed and quantitated, and the results interpreted in a blind fashion."}, "[4]": {"system": "HUVEC", "experiment": "Endothelial cell migration assay (Transwell, VEGF)", "format": "cell-based, human", "conditions": "VEGF 100 ng/ml", "experimental": "Cell migration assays were performed using HUVEC. Cells were starved overnight in basal medium containing 0.5% fetal bovine serum, collected, resuspended in the same medium, and seeded at a concentration of 10^5 cells/well on the upper surface of a 24-well transwell insert with a pore size of 8 μm (Millipore, Cambridge, Mass.). The insert was placed in a six-well plate that contained medium plus PBS, medium plus VEGF (100 ng/ml) or VEGF plus sMDA-7 (10 or 50 ng/ml). The plates containing the transwell insert were incubated at 37° C. overnight to allow migration. The next day, the wells were disassembled, membranes were fixed in crystal violet, and the number of cells that had migrated to the lower wells was counted under high-power magnification (×40)."}},
  "data": [
    {"molecule": "B1", "values": [
      {"measurement": "inhibitory activity on tube formation in presence of anti-IP-10 or anti-IFN-γ neutralizing antibodies", "setting": "[1]", "result": "not lost"},
      {"measurement": "tube formation", "setting": "[1]; 5 ng/ml alone", "result": "completely inhibited"},
      {"measurement": "formation of capillary tube-like structures", "setting": "[1]; HUVEC and HMVEC, 1, 5, 10, 50 ng/ml", "result": "significantly inhibited"},
      {"measurement": "concentration required to significantly inhibit HUVEC tube formation", "setting": "[1]; equimolar comparison", "result": 10, "unit": "ng/mL"},
      {"measurement": "cell growth inhibition or cell death", "setting": "[2]", "result": "did not induce cell growth inhibition or cell death"},
      {"measurement": "serum level of circulating sMDA-7 by ELISA", "setting": "[3]", "result": "approximately 50 ng/ml"},
      {"measurement": "concentration giving complete inhibition of migration", "setting": "[4]", "result": 50, "unit": "ng/mL"},
      {"measurement": "endothelial cell migration in response to VEGF", "setting": "[4]", "result": "inhibited endothelial cell migration significantly"}
    ]}
  ]
}
